Results on one molecule are retold here after US20050090648A1 (Eli Lilly, published 2005).

For one assay, the target named is T1, Mouse Aβ 1-40 (mouse, UniProt P12023 672-711).
T1 construct: domain: Aβ 1-40; Numbers count on the Aβ peptide
T1 peptide (looked up): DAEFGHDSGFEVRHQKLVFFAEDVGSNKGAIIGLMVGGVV
Nature of the assay: BIAcore, single concentration of peptide. In general terms: Surface plasmon resonance follows binding to a sensor surface in real time, without labels.

The target in a further assay is T2, Human Aβ fragment 10-20 (human, UniProt P05067 681-691).
T2 construct: domain: Aβ fragment 10-20; Numbers count on the Aβ peptide; also called human amyloid beta 10-20
T2 peptide (looked up): YEVHHQKLVFF
Nature of the assay: BIAcore, single concentration of fragment.

Another assay deals with T3, Human Aβ fragment 16-25 (human, UniProt P05067 687-696).
T3 construct: domain: Aβ fragment 16-25; Numbers count on the Aβ peptide; also called human amyloid beta 16-25
T3 peptide (looked up): KLVFFAEDVG
Nature of the assay: BIAcore, single concentration of fragment.

The target of assay [1] is T4, β-amyloid peptide (1-42) (UniProt P05067 672-713).
T4 construct: domain: β-amyloid peptide (1-42); Numbers 1-42 count on the Aβ peptide, not on the APP precursor entry; also called Aβ 1-42; Amyloid-beta 1-42
Nature of the assay: BIAcore 2000, antibody captured by anti-IgG on CM5 chip, Aβ flowed over.
Procedure: Antibody affinity (KD=Kd/Ka) was determined using a BIAcore biosensor 2000 and data analyzed with BIAevaluation (v. 3.1) software. A capture antibody (rabbit anti-mouse or anti-human IgG) was coupled via free amine groups to carboxyl groups on flow cell 2 of a biosensor chip (CM5) using N-ethyl-N-dimethylaminopropyl carbodiimide and N-hydroxysuccinimide (EDC/NHS). A non-specific rabbit IgG was coupled to flow cell 1 as a background control. Monoclonal antibodies were captured to yield 300 resonance units (RU). […] To regenerate the chip, bound anti-Aβ antibody was eluted from the chip using a wash with glycine-HCl (pH 2). A control injection containing no amyloid-beta served as a control for baseline subtraction.

For assay [2], the target named is T4, β-amyloid peptide (1-42). Nature of the assay: competitive ELISA on coated β-amyloid peptide (1-42); competitor against biotinylated Mu3D6; second set of three experiments. In general terms: In an ELISA, binding on a coated surface is turned into a signal by an enzyme label.
Procedure: (§1) After washing the wells with phosphate buffered saline (PBS) containing 0.1% Tween 20 (Washing Buffer) using an ELISA plate washer, the wells were blocked by adding 300 μL of SuperBlock reagent (Pierce) per well. After 30 minutes of blocking, the wells were washed with Washing Buffer and excess liquid was removed.
(§2) As a background control, 100 μl of ELISA Buffer was added. The ELISA plate was incubated at room temperature for 90 min. […] The plate was incubated at room temperature for 30 min and washed with Washing Buffer. For color development, 100 μl/well of ABTS Peroxidase Substrate (Kirkegaard & Perry Laboratories) was added. Color development was stopped by adding 100 μl/well of 2% oxalic acid. […] The absorbances were plotted against the log of the competitor concentration, curves were fit to the data points (using Prism) and the IC50 was determined for each antibody using methods well-known in the art.
Assay [3] concerns the target T4, β-amyloid peptide (1-42). Briefly: competitive ELISA on coated β-amyloid peptide (1-42); competitor against biotinylated Mu3D6 (0.2 µg/ml); first set of three experiments.
Procedure: as §1, §2

The term Kd denotes the concentration at which binding is half-saturated. Read a high Kd as a looser complex. Usually IC50 stands for the midpoint of a concentration-inhibition curve. Low readings indicate inhibition by little substance, high ones a need for much substance.

T4 sequence (P05067 672-713 limits assumed): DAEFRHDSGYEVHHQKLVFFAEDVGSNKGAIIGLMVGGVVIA
Source text for Human Aβ fragment 10-20: (§3) All dilutions were made with HEPES buffered saline containing Tween 20. A single concentration of a variety of fragments of human Aβ or mouse Aβ 1-40 (BioSource International) was used.
Source text for Human Aβ fragment 16-25: as §3
Source text for Mouse Aβ 1-40: as §3

B1: Humanized 3D6 antibody (antibody, human IgG1, kappa, V domains shown)
VH: EVQLVESGGGLVQPGGSLRLSCAGSGFTFSNYGMSWVRQAPGKGLEWVASIRSGGGRTYYSDNVKGRFTISRENAKNSLYLQMNSLRAEDTAVYYCVRYDHYSGSSDYWGQGTLVTVSS
VL: DVVMTQSPLSLPVTLGQPASISCKSSQSLLDSDGKTYLNWLQQRPGQSPRRLIYLVSKLDSGVPDRFSGSGSGTDFTLKISRVEAEDVGVYYCWQGTHFPRTFGGGTKVEIKR
notes: Expressed from pVk-Hu3D6 and pVg1-Hu3D6 in Sp2/0 (human kappa, gamma 1); also called Hu3D6
For the molecule B1, the binding result with Mouse Aβ 1-40, in the assay with Human Aβ fragment 10-20 and with Human Aβ fragment 16-25 was “no binding” throughout. The dissociation constant Kd with β-amyloid peptide (1-42) [1] was determined as 2.3 nM. The values for the IC50 with β-amyloid peptide (1-42) [2] and with β-amyloid peptide (1-42) [3] were 3.97 µg/mL and 3.3 µg/mL, respectively.
